What was measured:
[1] = target: SpoIIE(590–827), PP2C phosphatase domain of SpoIIE from Bacillus subtilis (B. subtilis) (UniProt P37475); experiment: crystal structure; crystals from 0.9–1.2 M sodium acetate, 0.1 M Hepes pH 7.5; protein pre-incubated with 1–2 mM MnCl2 for 30 min; space group P6_(1)22; 2.76 Å (PDB 3T9Q)
[2] = target: SpoIIE(590–827), PP2C phosphatase domain of SpoIIE from Bacillus subtilis (B. subtilis) (UniProt P37475); experiment: crystal structure; crystals from 14–15% polyethylene glycol 400, 0.1 M Tris–HCl (pH 8.5), 0.2 M sodium citrate, 0–50 mM MnCl2; space group P6_(1)22, two molecules in the asymmetric unit; 2.6 Å (PDB 3T91)

- stoichiometry N [1]: 2
- stoichiometry N [2]: 2
Substance: SpoIIE(590–827), PP2C phosphatase domain of SpoIIE from Bacillus subtilis (from UniProt P37475 590-827) (domain or fragment)
